59 variants from the MegaScale stability set (Tsuboyama et al. 2023) can be followed below.

Sequences and labels used below:
B1: HEEH_KT_rd6_3632 (parent)
chain: DAEELIELVERALKEGREIILLGVRITSEEAGKWFIEWIRRFL

In this series the parent is B1. Nature of the series: folding stability dG (cDNA display proteolysis); higher = more stable. The conditions noted are these: PBS, room temperature.
In the case of DAEELIEVVERALKEGREIILLGVRITSEEAGKWFIEWIRRFL [L8V], the “folding stability dG” value was found to be 3.26 kcal/mol.

For the variant DAEELIEQVERALKEGREIILLGVRITSEEAGKWFIEWIRRFL [L8Q], the “folding stability dG” value worked out at 3.49 kcal/mol.

As for DAEELIEYVERALKEGREIILLGVRITSEEAGKWFIEWIRRFL [L8Y], the “folding stability dG” value was 3.49 kcal/mol.

In the case of DAEELIETVERALKEGREIILLGVRITSEEAGKWFIEWIRRFL [L8T], the “folding stability dG” value was found to be 3.28 kcal/mol.

Take DAEELIESVERALKEGREIILLGVRITSEEAGKWFIEWIRRFL [L8S]: the “folding stability dG” value was 3.08 kcal/mol.

As to DAEELIELVERMLKEGREIILLGVRITSEEAGKWFIEWIRRFL [A12M], the “folding stability dG” value worked out at 3.56 kcal/mol.

As for DAEELIELVERSLKEGREIILLGVRITSEEAGKWFIEWIRRFL [A12S], the “folding stability dG” value turned out to be 3.31 kcal/mol.

Take DAEELIELVERTLKEGREIILLGVRITSEEAGKWFIEWIRRFL [A12T]: the “folding stability dG” value stood at 3.3 kcal/mol.

As for DAEELIELVERRLKEGREIILLGVRITSEEAGKWFIEWIRRFL [A12R], the “folding stability dG” value came out at 3.17 kcal/mol.

As to DAEELIELVERHLKEGREIILLGVRITSEEAGKWFIEWIRRFL [A12H], the “folding stability dG” value amounted to 3.35 kcal/mol.

In the case of DAEELIELVERQLKEGREIILLGVRITSEEAGKWFIEWIRRFL [A12Q], the “folding stability dG” value was determined as 3.17 kcal/mol.

For DAEELIELVERDLKEGREIILLGVRITSEEAGKWFIEWIRRFL [A12D], the “folding stability dG” value worked out at 2.84 kcal/mol.

As to DAEELIELVERNLKEGREIILLGVRITSEEAGKWFIEWIRRFL [A12N], the “folding stability dG” value is 3.13 kcal/mol.

As to DAEELIELVERILKEGREIILLGVRITSEEAGKWFIEWIRRFL [A12I], the “folding stability dG” value came to 3.73 kcal/mol.

As to DAEELIELVERELKEGREIILLGVRITSEEAGKWFIEWIRRFL [A12E], the “folding stability dG” value is 3.09 kcal/mol.

For DAEELIELVERVLKEGREIILLGVRITSEEAGKWFIEWIRRFL [A12V], the “folding stability dG” value stood at 3.55 kcal/mol.

In the case of DAEELIELVERKLKEGREIILLGVRITSEEAGKWFIEWIRRFL [A12K], the “folding stability dG” value was determined as 3.08 kcal/mol.

For DAEELIELVERWLKEGREIILLGVRITSEEAGKWFIEWIRRFL [A12W], the “folding stability dG” value is 3.76 kcal/mol.

On to DAEELIELVERFLKEGREIILLGVRITSEEAGKWFIEWIRRFL [A12F], for which the “folding stability dG” value is 3.42 kcal/mol.

Regarding DAEELIELVERPLKEGREIILLGVRITSEEAGKWFIEWIRRFL [A12P], the “folding stability dG” value worked out at 2.88 kcal/mol.

For DAEELIELVERLLKEGREIILLGVRITSEEAGKWFIEWIRRFL [A12L], the “folding stability dG” value came out at 3.74 kcal/mol.

Consider DAEELIELVERGLKEGREIILLGVRITSEEAGKWFIEWIRRFL [A12G], for which the “folding stability dG” value was found to be 3.21 kcal/mol.

Regarding DAEELIELVERYLKEGREIILLGVRITSEEAGKWFIEWIRRFL [A12Y], the “folding stability dG” value was 3.33 kcal/mol.

For the variant DAEELIELVERALEEGREIILLGVRITSEEAGKWFIEWIRRFL [K14E], the “folding stability dG” value came out at 3.54 kcal/mol.

For the variant DAEELIELVERALSEGREIILLGVRITSEEAGKWFIEWIRRFL [K14S], the “folding stability dG” value amounted to 3.62 kcal/mol.

As to DAEELIELVERALFEGREIILLGVRITSEEAGKWFIEWIRRFL [K14F], the “folding stability dG” value stood at 3.39 kcal/mol.

With DAEELIELVERALLEGREIILLGVRITSEEAGKWFIEWIRRFL [K14L], the “folding stability dG” value came out at 3.79 kcal/mol.

For DAEELIELVERALWEGREIILLGVRITSEEAGKWFIEWIRRFL [K14W], the “folding stability dG” value worked out at 3.5 kcal/mol.

On to DAEELIELVERALHEGREIILLGVRITSEEAGKWFIEWIRRFL [K14H], for which the “folding stability dG” value came to 3.49 kcal/mol.

Turning to DAEELIELVERALQEGREIILLGVRITSEEAGKWFIEWIRRFL [K14Q], the “folding stability dG” value is 3.56 kcal/mol.

As for DAEELIELVERALPEGREIILLGVRITSEEAGKWFIEWIRRFL [K14P], the “folding stability dG” value is 3.27 kcal/mol.

Turning to DAEELIELVERALMEGREIILLGVRITSEEAGKWFIEWIRRFL [K14M], the “folding stability dG” value was 3.48 kcal/mol.

With DAEELIELVERALVEGREIILLGVRITSEEAGKWFIEWIRRFL [K14V], the “folding stability dG” value was found to be 3.5 kcal/mol.

Take DAEELIELVERALREGREIILLGVRITSEEAGKWFIEWIRRFL [K14R]: the “folding stability dG” value came to 3.86 kcal/mol.

As for DAEELIELVERALTEGREIILLGVRITSEEAGKWFIEWIRRFL [K14T], the “folding stability dG” value was found to be 3.42 kcal/mol.

As to DAEELIELVERALAEGREIILLGVRITSEEAGKWFIEWIRRFL [K14A], the “folding stability dG” value is 3.73 kcal/mol.

Regarding DAEELIELVERALNEGREIILLGVRITSEEAGKWFIEWIRRFL [K14N], the “folding stability dG” value was found to be 3.52 kcal/mol.

As for DAEELIELVERALGEGREIILLGVRITSEEAGKWFIEWIRRFL [K14G], the “folding stability dG” value came out at 3.5 kcal/mol.

As to DAEELIELVERALDEGREIILLGVRITSEEAGKWFIEWIRRFL [K14D], the “folding stability dG” value is 3.25 kcal/mol.

Take DAEELIELVERALIEGREIILLGVRITSEEAGKWFIEWIRRFL [K14I]: the “folding stability dG” value is 3.6 kcal/mol.

For the variant DAEELIELVERADKEGREIILLGVRITSEEAGKWFIEWIRRFL [L13D], the “folding stability dG” value stood at 2.97 kcal/mol.

Consider DAEELIELVERAQKEGREIILLGVRITSEEAGKWFIEWIRRFL [L13Q], for which the “folding stability dG” value came to 2.95 kcal/mol.

For the variant DAEELIELVERAIKEGREIILLGVRITSEEAGKWFIEWIRRFL [L13I], the “folding stability dG” value was found to be 3.87 kcal/mol.

Regarding DAEELIELVERANKEGREIILLGVRITSEEAGKWFIEWIRRFL [L13N], the “folding stability dG” value came out at 2.88 kcal/mol.

As to DAEELIELVERAGKEGREIILLGVRITSEEAGKWFIEWIRRFL [L13G], the “folding stability dG” value was determined as 2.96 kcal/mol.

In the case of DAEELIELVERAPKEGREIILLGVRITSEEAGKWFIEWIRRFL [L13P], the “folding stability dG” value was found to be 2.88 kcal/mol.

In the case of DAEELIELVERACKEGREIILLGVRITSEEAGKWFIEWIRRFL [L13C], the “folding stability dG” value turned out to be 4.96 kcal/mol.

For DAEELIELVERAMKEGREIILLGVRITSEEAGKWFIEWIRRFL [L13M], the “folding stability dG” value came out at 3.67 kcal/mol.

As for DAEELIELVERAYKEGREIILLGVRITSEEAGKWFIEWIRRFL [L13Y], the “folding stability dG” value amounted to 3.28 kcal/mol.

For the variant DAEELIELVERAFKEGREIILLGVRITSEEAGKWFIEWIRRFL [L13F], the “folding stability dG” value was 3.42 kcal/mol.

Consider DAEELIELVERAAKEGREIILLGVRITSEEAGKWFIEWIRRFL [L13A], for which the “folding stability dG” value stood at 3.14 kcal/mol.

Regarding DAEELIELVERAEKEGREIILLGVRITSEEAGKWFIEWIRRFL [L13E], the “folding stability dG” value is 2.96 kcal/mol.

Take DAEELIELVERAKKEGREIILLGVRITSEEAGKWFIEWIRRFL [L13K]: the “folding stability dG” value was 3.07 kcal/mol.

On to DAEELIELVERAWKEGREIILLGVRITSEEAGKWFIEWIRRFL [L13W], for which the “folding stability dG” value worked out at 3.43 kcal/mol.

Take DAEELIELVERASKEGREIILLGVRITSEEAGKWFIEWIRRFL [L13S]: the “folding stability dG” value came to 3.08 kcal/mol.

DAEELIELVERAHKEGREIILLGVRITSEEAGKWFIEWIRRFL [L13H]: the “folding stability dG” value came to 2.99 kcal/mol.

As for DAEELIELVERAVKEGREIILLGVRITSEEAGKWFIEWIRRFL [L13V], the “folding stability dG” value amounted to 3.54 kcal/mol.

Regarding DAEELIELVERARKEGREIILLGVRITSEEAGKWFIEWIRRFL [L13R], the “folding stability dG” value is 3.1 kcal/mol.

Regarding DAEELIELVERATKEGREIILLGVRITSEEAGKWFIEWIRRFL [L13T], the “folding stability dG” value was determined as 3.25 kcal/mol.
